Assay [1] deals with T1, mouse FcRn (mouse, UniProt Q61559 22-297; P01887 21-119).
T1 sequence (looked up) 1: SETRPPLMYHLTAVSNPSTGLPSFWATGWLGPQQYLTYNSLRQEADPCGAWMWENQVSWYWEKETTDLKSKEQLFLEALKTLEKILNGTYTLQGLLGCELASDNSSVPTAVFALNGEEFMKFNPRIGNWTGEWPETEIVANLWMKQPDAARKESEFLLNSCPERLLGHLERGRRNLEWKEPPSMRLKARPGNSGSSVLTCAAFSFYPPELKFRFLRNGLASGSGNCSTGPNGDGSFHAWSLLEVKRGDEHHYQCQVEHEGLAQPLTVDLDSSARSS
T1 sequence (looked up) 2: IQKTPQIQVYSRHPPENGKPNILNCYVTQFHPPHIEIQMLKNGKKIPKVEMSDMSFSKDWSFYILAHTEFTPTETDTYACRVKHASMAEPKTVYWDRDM

For assay [2], the target named is T2, mouse FcγRI (mouse, UniProt P26151 25-297).
T2 sequence (looked up): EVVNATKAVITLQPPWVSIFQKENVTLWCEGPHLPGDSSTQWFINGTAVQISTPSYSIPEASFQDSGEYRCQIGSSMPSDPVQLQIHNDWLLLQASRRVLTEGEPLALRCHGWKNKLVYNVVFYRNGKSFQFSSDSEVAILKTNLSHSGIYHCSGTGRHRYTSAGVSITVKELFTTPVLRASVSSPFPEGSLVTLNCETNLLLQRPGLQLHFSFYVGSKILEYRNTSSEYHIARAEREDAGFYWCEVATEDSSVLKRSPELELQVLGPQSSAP

Assay [3] has as its target T1, mouse FcRn. Description: pH 5.6.

B1: HD37 single chain IgG2a (mouse, anti-hCD19) (antibody)
chain: DILLTQTPASLAVSLGQRATISCKASQSVDYDGDSYLNWYQQIPGQPPKLLIYDASNLVSGIPPRFSGSGSGTDFTLNIHPVEKVDAATYHCQQSTEDPWTFGGGTKLEIKRADAAPTVSIFPPSSEQLTSGGASVVCFLNNFYPKDINVKWKIDGSERQNGVLNSWTDQDSKDSTYSMSSTLTLTKDEYERHNSYTCEATHKTSTSPIVKSFNRNECGGSSGSGSGSTGTSSSGTGTSAGTTGTSASTSGSGSGGGGGSGGGGSAGGTATAGASSGSGSSGSSSSGGTGTGQVQLQQSGAELVRPGSSVKISCKASGYAFSSYWMNWVKQRPGQGLEWIGQIWPGDGDTNYNGKFKGKATLTADESSSTAYMQLSSLASEDSAVYFCARRETTTVGRYYYAMDYWGQGTSVTVSSSQSFPNVFPLVSCESPLSDKNLVAMGCLARDFLPSTISFTWNYQNNTEVIQGIRTFPTLRTGGKYLATSQVLLSPKSILEGSDEYLVCKIHYGGKNRDLHVPIPSKPCPPCKCPAPNLLGGPSVFIFPPKIKDVLMISLSPIVTCVVVDVSEDDPDVQISWFVNNVEVHTAQTQTHREDYNSTLRVVSALPIQHQDWMSGKEFKCKVNNKDLPAPIERTISKPKGSVRAPQVYVLPPPEEEMTKKQVTLTCMVTDFMPEDIYVEWTNNGKTELNYKNTEPVLDSDGSYFMYSKLRVEKKNWVERNSYSCSVVHEGLHNHHTTKSFSRTPGK
notes: also called mIgG2a control; parental IgG
Broadly, the kon is a measure of how fast the partners come together. A higher kon goes with faster complex formation. The term Kd denotes the constant that tells how readily two partners part at equilibrium. Low readings indicate tighter binding, high ones weaker binding. What is called koff is the rate constant with which the complex falls apart. In assay [1], B1 had a kon of 116000 M⁻¹ s⁻¹. In assay [2], this molecule returned a Kd of 8.63 nM, a koff of 0.000451 s⁻¹ and a kon of 52200 M⁻¹ s⁻¹. Further, in assay [3], the Kd worked out at 1.06 nM and the koff came to 0.000123 s⁻¹.
